We go through 15 sequences from the Immune Epitope Database (IEDB).

Bounds are passed on as bounds.

For one assay, the target named is HLA-A*02:50. The assay can be described thus: IEDB peptide-MHC binding, purified MHC/competitive/fluorescence; filed as Kd, often an IC50 or EC50 that approximates it; ≥ and ≤ were set here for values at or beyond the usual limits of such assays.
For assay [1], the target named is HLA-A*02:01. In words: IEDB peptide-MHC binding, purified MHC/direct/fluorescence; filed as Kd, often an IC50 or EC50 that approximates it; ≥ and ≤ were set here for values at or beyond the usual limits of such assays.
A further assay concerns the target HLA-A*02:12. Described as above.
A further assay deals with HLA-A*69:01. The description is as above.
The target in a further assay is HLA-B*35:01. The assay can be described thus: IEDB peptide-MHC binding, purified MHC/competitive/fluorescence; filed as Kd, often an IC50 or EC50 that approximates it; ≥ and ≤ were set here for values at or beyond the usual limits of such assays. To be noted: source organism: West Nile virus.
Assay [2] addresses HLA-B*51:01. The assay is described as above.
The next assay addresses HLA-B*15:17. The assay can be described thus: IEDB peptide-MHC binding, purified MHC/direct/fluorescence; filed as Kd, often an IC50 or EC50 that approximates it; ≥ and ≤ were set here for values at or beyond the usual limits of such assays. The following applies: source organism: West Nile virus.
Another assay deals with HLA-B*57:01. The description is as above. The following applies: source organism: West Nile virus.
The target of another assay is HLA-C*03:03. The assay is described as above.
The target of another assay is HLA-B*08:01. The assay is described as above. The following applies: source organism: Salmonella enterica.
In another assay the target is HLA-B*40:01. Described as above. To be noted: source organism: Salmonella enterica.
For assay [3], the target named is HLA-B*15:01. Described as above. To be noted: source organism: Salmonella enterica.
For assay [4], the target named is HLA-A*11:01. The description is as above. The following applies: source organism: Salmonella enterica.
The target in the next assay is HLA-A*24:03. Described as above. The following applies: source organism: Salmonella enterica.
In assay [5] the target is HLA-A*03:01. The assay is described as above. The following applies: source organism: Salmonella enterica.
The target of a further assay is HLA-B*27:05. The assay is described as above. To be noted: source organism: Salmonella enterica.
In assay [6] the target is HLA-A*01:01. Described as above. To be noted: source organism: Salmonella enterica.
The target in a further assay is HLA-B*58:01. The assay is described as above.
In the next assay the target is HLA-B*44:02. The description is as above. The following applies: source organism: Salmonella enterica.
For another assay, the target named is HLA-B*07:02. The description is as above. The following applies: source organism: Salmonella enterica.
For assay [7], the target named is HLA-A*31:01. The description is as above. The following applies: source organism: Salmonella enterica subsp. enterica serovar Typhimurium.
Another assay has as its target HLA-A*26:01. Described as above. To be noted: source organism: Salmonella enterica.
The target of assay [8] is HLA-B*15:01. The assay can be described thus: IEDB peptide-MHC binding, purified MHC/competitive/fluorescence; ≥ and ≤ were set here for values at or beyond the usual limits of such assays. The following applies: source organism: Vaccinia virus Copenhagen.
The target of assay [9] is HLA-A*11:01. The description is as above. To be noted: source organism: Vaccinia virus Copenhagen.
For assay [10], the target named is HLA-A*03:01. The description is as above. The following applies: source organism: Vaccinia virus Copenhagen.
The target in assay [11] is HLA-A*01:01. The description is as above.
A further assay concerns the target HLA-A*33:01. The assay can be described thus: IEDB peptide-MHC binding, purified MHC/competitive/radioactivity; filed as Kd, often an IC50 or EC50 that approximates it; ≥ and ≤ were set here for values at or beyond the usual limits of such assays. The following applies: source organism: Vaccinia virus WR.
The target of a further assay is HLA-A*68:01. The description is as above. To be noted: source organism: Vaccinia virus WR.
The target in assay [12] is HLA-A*31:01. The assay is described as above. The following applies: source organism: Vaccinia virus WR.
The target in another assay is HLA-A*24:02. The assay can be described thus: IEDB peptide-MHC binding, purified MHC/competitive/fluorescence; ≥ and ≤ were set here for values at or beyond the usual limits of such assays. The following applies: source organism: Zaire ebolavirus.
The target in the next assay is HLA-A*68:02. The assay can be described thus: IEDB peptide-MHC binding, purified MHC/competitive/fluorescence; filed as Kd, often an IC50 or EC50 that approximates it; ≥ and ≤ were set here for values at or beyond the usual limits of such assays. To be noted: source organism: Entamoeba histolytica HM-1:IMSS.
The next assay addresses HLA-C*05:01. In words: IEDB peptide-MHC binding, purified MHC/direct/fluorescence; filed as Kd, often an IC50 or EC50 that approximates it; ≥ and ≤ were set here for values at or beyond the usual limits of such assays.
Assay [13] addresses HLA-A*02:01. The assay can be described thus: IEDB peptide-MHC binding, purified MHC/competitive/fluorescence; ≥ and ≤ were set here for values at or beyond the usual limits of such assays. To be noted: source organism: Zaire ebolavirus.
The next assay has as its target HLA-B*46:01. In words: IEDB peptide-MHC binding, purified MHC/competitive/fluorescence; filed as Kd, often an IC50 or EC50 that approximates it; ≥ and ≤ were set here for values at or beyond the usual limits of such assays. To be noted: source organism: Mycobacterium tuberculosis variant bovis BCG str. Pasteur 1173P2.
For another assay, the target named is HLA-C*07:02. The assay can be described thus: IEDB peptide-MHC binding, purified MHC/direct/fluorescence; filed as Kd, often an IC50 or EC50 that approximates it; ≥ and ≤ were set here for values at or beyond the usual limits of such assays. To be noted: source organism: Mycobacterium tuberculosis variant bovis BCG str. Pasteur 1173P2.
The target of a further assay is HLA-B*45:06. The assay can be described thus: IEDB peptide-MHC binding, purified MHC/competitive/fluorescence; filed as Kd, often an IC50 or EC50 that approximates it; ≥ and ≤ were set here for values at or beyond the usual limits of such assays. To be noted: source organism: Giardia lamblia ATCC 50803.
In another assay the target is HLA-B*15:42. The description is as above. To be noted: source organism: Giardia lamblia ATCC 50803.
In a further assay the target is HLA-B*83:01. The description is as above. To be noted: source organism: Giardia lamblia ATCC 50803.
Assay [14] deals with HLA-B*51:01. The assay can be described thus: IEDB peptide-MHC binding, purified MHC/direct/fluorescence; filed as Kd, often an IC50 or EC50 that approximates it; ≥ and ≤ were set here for values at or beyond the usual limits of such assays. The following applies: source organism: Giardia lamblia ATCC 50803.
Setting [15] is: source organism: Vaccinia virus.
[16] abbreviates: source organism: West Nile virus.
Setting [17] is: source organism: Salmonella enterica subsp. enterica serovar Typhimurium.
The mark [18] stands for this setting: source organism: Zaire ebolavirus.
The mark [19] stands for this setting: source organism: Vibrio vulnificus CMCP6.
Setting [20] is: source organism: Vibrio vulnificus.
The mark [21] stands for this setting: source organism: Marburg virus - Musoke, Kenya, 1980.
Where [22] appears, read: source organism: Mammarenavirus juninense.
The mark [23] stands for this setting: source organism: Giardia lamblia ATCC 50803.
Setting [24] is: source organism: Burkholderia mallei ATCC 23344.
[25] abbreviates: source organism: Burkholderia mallei.

For TLNHNCINV, the Kd in the assay with HLA-A*02:50 (setting [15]) is 0.2 nM; with HLA-A*02:01 [1] (source organism: Cowpox virus), 404 nM; with HLA-A*02:12 (setting [15]), 19 nM; in the assay with HLA-A*69:01 (source organism: Cowpox virus), 136 nM.

With LAVSAYTPW, the Kd with HLA-B*35:01 was 5.7 nM; with HLA-B*51:01 [2] (setting [16]), at least 20000 nM; in the assay with HLA-B*15:17 it was 5 nM; with HLA-B*57:01 it was 86 nM; in the assay with HLA-C*03:03 (setting [16]), at most 1 nM.

As for LLQGVPFHV, the Kd is at most 0.1 nM in the assay with HLA-A*02:50 (source organism: Salmonella enterica subsp. enterica serovar Paratyphi B str. SPB7); at least 20000 nM with HLA-B*08:01; at least 20000 nM with HLA-B*40:01; at least 20000 nM in the assay with HLA-B*15:01 [3]; at least 20000 nM in the assay with HLA-A*11:01 [4]; 109 nM in the assay with HLA-A*02:01 [1] (setting [17]). Also, the Kd with HLA-A*24:03, with HLA-A*03:01 [5], with HLA-B*27:05, in the assay with HLA-A*01:01 [6], in the assay with HLA-B*58:01 (source organism: Salmonella enterica) and with HLA-B*44:02 was at least 20000 nM in each case. In addition, the Kd was at least 20000 nM in the assay with HLA-B*07:02, 1810 nM in the assay with HLA-A*31:01 [7], 289 nM with HLA-A*69:01 (setting [17]) and at least 20000 nM with HLA-A*26:01.

As for VTAASPMLY, the IC50 with HLA-B*15:01 [8] came to 4450 nM; in the assay with HLA-A*11:01 [9], 1170 nM; in the assay with HLA-A*03:01 [10], 10500 nM; with HLA-A*01:01 [11] (source organism: Vaccinia virus Copenhagen) it was 1290 nM. The Kd is 14500 nM with HLA-A*33:01, 861 nM with HLA-A*68:01 and at least 77900 nM with HLA-A*31:01 [12].

Regarding EIDTTIGEW, the figures for the IC50 in the assay with HLA-A*24:02 and in the assay with HLA-A*01:01 [11] (setting [18]) were at least 81700 nM and at least 494000 nM, respectively.

On to KLTSYSAGL, for which the Kd was at most 0.1 nM in the assay with HLA-A*02:50 (setting [19]), 21 nM with HLA-A*02:01 [1] (setting [20]), 7 nM in the assay with HLA-A*02:12 (setting [19]) and 15100 nM with HLA-A*69:01 (setting [20]).

FLLDYEGTL: the results for the Kd with HLA-A*02:01 [1] (setting [21]), with HLA-C*03:03 (source organism: Orthomarburgvirus marburgense) and in the assay with HLA-A*69:01 (setting [21]) were 6 nM, at most 1 nM and 437 nM, respectively.

Sequence MVPKSFTYS displayed a Kd in the assay with HLA-A*68:02 of 76.2 nM.

In the case of RATQPAAEF, the Kd with HLA-C*05:01 (setting [22]) amounted to 1740 nM; with HLA-B*58:01 (setting [22]), 12.9 nM.

On to LFEVDNLTY, for which the IC50 in the assay with HLA-A*02:01 [13] was at least 210000 nM; with HLA-A*24:02, 66500 nM; in the assay with HLA-A*01:01 [11] (setting [18]), 69100 nM.

With FLLDGGAPF, the values for the Kd with HLA-B*46:01, in the assay with HLA-C*07:02 and in the assay with HLA-C*03:03 (source organism: Mycobacterium tuberculosis variant bovis BCG str. Pasteur 1173P2) were 21.2 nM, 527 nM and at most 1 nM, respectively.

For MPVSIPTPI, the results for the Kd in the assay with HLA-B*51:01 [2] (setting [23]) and in the assay with HLA-C*05:01 (setting [23]) were 340 nM and at least 20000 nM, respectively.

As for YLACKQHAL, the Kd in the assay with HLA-A*02:50 (setting [24]) was at most 0.1 nM; in the assay with HLA-A*02:01 [1] (setting [25]), 62.5 nM; with HLA-C*03:03 (setting [24]), 24 nM; with HLA-A*69:01 (setting [25]), 292 nM.

The sequence KIDDMIEEV displayed a Kd with HLA-C*05:01 (source organism: Vaccinia virus WR) of 124 nM.

Take FPMIIGSEL: the Kd in the assay with HLA-B*45:06 was at least 5000 nM; in the assay with HLA-B*15:42, at least 5000 nM; with HLA-B*83:01, 156 nM; with HLA-C*05:01 (setting [23]), at least 20000 nM; with HLA-B*51:01 [14], 2130 nM.
